According to patent publication US20220348635A1, “COMPOSITIONS AND METHODS FOR NEUROLOGICAL DISEASES” (Coda Biotherapeutics, Inc., priority 2019, published 2022):

Legend:
Assay type in all cases: cell-based
[1] = YFP quench plate reader assay, response to AZD-0328; details: LX293T YFP reporter cells
Summary of the method: (§1)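 LX293T cells stably expressing an anion-quenched YFP reporter were transiently transfected with DNA for double-substitution mutants of chimeric LGIC SEQ ID NO:33. Ligand, prepared at 2× in NaI-based ECS (pH 7.2), was added after a 17 sec baseline, and YFP quench was read over 2 min on a Flexstation3.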

[2] = YFP quench plate reader assay, response to TC-5619; details: LX293T YFP reporter cells
Summary of the method: as §1

[3] = High throughput electrophysiology in HEK293T cells, AZD-0328; details: HEK293T cells, held at −60 mV
Summary of the method: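 Engineered receptors transiently expressed in HEK293T cells, recorded 24 h post-transfection by automated whole-cell patch clamp at −60 mV, CsCl intracellular, pH 7.2 extracellular buffer. Progressive agonist doses applied for 1 s; peak currents fit to a 4-parameter Hill equation for EC50.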

[4] = Manual patch clamp, rat DRG neurons, Facinicline/RG3487; details: cultured adult rat DRG neurons expressing the receptor; not observed in non-transduced cells
Procedure: (§2) Using whole cell manual patch clamp electrophysiology in HEK293 cells and rat DRG neurons, the EC50 of the various engineered receptors disclosed herein to Ach and non-native ligands was measured. The rheobase shift was also measured in rat DRG neurons, which reflects the efficacy of the receptors. To calculate the rheobase, first, the amount of current that can produce an action potential was determined. Then the ligand was added, followed by a step wise increase in the current injected up to 700 pA. The current injected after addition of the ligand was divided by, the original current injected to obtain an action potential, to calculate the rheobase. The EC50 was calculated using the Hill equation with peak current measurements from escalating doses of ligand.

[5] = Evoked action potentials in transduced rat DRG neurons, RG-3487; details: RG-3487 (SA-2) at 3 μM
Procedure: as §2
Acetylcholine at 3.0 mM had no effect on evoked action potentials in transduced neurons (n=4) (FIG. 4B).

B1: Y115D, L131Q in SEQ ID NO: 33: CR-11 (Chemogenic receptor-11): SEQ ID NO: 33 with substitutions Y115D and L131Q (protein)
chain: MRCSPGGVWLALAASLLHVSLQGEFQRKLYKELVKNYNPLERPVANDSQPLTVYFSLSLLQIMDVDEKNQVLTTNIWLQMSWTDHYLQWNVSEYPGVKTVRFPDGQIWKPDILLDNSADERFDATFHTNVQVNSSGHCQYLPPGIFKSSCPMDLKNFPMDVQTCKLKFGSWSYGGWSLDLQMQEADISGYIPNGEWDLVGIPGKRSERFYECCKEPYPDVTFTVTMRRRMGYYLIQMYIPSLLIVILSWISFWINMDAAPARVGLGITTVLTMTTQSSGSRASLPKVSYVKAIDIWMAVCLLFVFSALLEYAAVNFVSRQHKELLRFRRKRRHHKSPMLNLFQEDEAGEGRFNFSAYGMGPACLQAKDGISVKGANNSNTTNPPPAPSKSPEEMRKLFIQRAKKIDKISRIGFPMAFLIFNMFYWIIYKIVRREDVHNQ
modifications: synthetic sequence of chimeric LGIC
Question: For B1, which “percent quench of YFP fluorescence, 100 nM azd” value ([1]; 100 nM AZD-0328) is on record?
Answer: 12.15%

Question: What about the “percent quench of YFP fluorescence, 300 nM azd” value ([1]; 300 nM AZD-0328) of the same molecule?
Answer: 30.92%

Question: And the “percent quench of YFP fluorescence, 30 uM azd” value ([1]; 30 uM AZD-0328)?
Answer: 68.65%

Question: What about the “percent quench of YFP fluorescence, 1 nM brd” value ([2]; 1 nM TC-5619) of the same molecule?
Answer: 0.92%

Question: And the “percent quench of YFP fluorescence, 3 nM brd” value ([2]; 3 nM TC-5619)?
Answer: −4.65%

Question: What about the “percent quench of YFP fluorescence, 10 nM brd” value ([2]; 10 nM TC-5619) of the same molecule?
Answer: 0.38%

Question: And the “percent quench of YFP fluorescence, 30 nM brd” value ([2]; 30 nM TC-5619)?
Answer: 8.96%

Question: And the “percent quench of YFP fluorescence, 100 nM brd” value ([2]; 100 nM TC-5619)?
Answer: 12.18%

Question: And the “percent quench of YFP fluorescence, 300 nM brd” value ([2]; 300 nM TC-5619)?
Answer: −0.3%

Question: What about the “percent quench of YFP fluorescence, 1 uM brd” value ([2]; 1 uM TC-5619) of the same molecule?
Answer: 45.47%

Question: And the “EC50 AZD-0328” value [3]?
Answer: no activity

Question: And the “chloride current on application of RG-3487 (SA-2)” value [4]?
Answer: generated chloride current in a dose dependent manner

Question: And the “effect on current injection evoked action potentials” value [5]?
Answer: reversibly inhibits

Question: What about the “increase in the current required to elicit action potentials” value ([5]; n=7) of the same molecule?
Answer: ~3 ×
